Residue numbers refer to the chain shown, from its start. Names may count otherwise.
T1: Ubp6 (wild-type, His6-tagged) (budding yeast, UniProt P43593 1-499)
T1 construct: Ubp6, deubiquitinating enzyme, budding yeast; N-terminal UBL domain and C-terminal catalytic domain (residues 104 to 499); In the cryo-EM rows Ubp6 stood as the UbVS adduct; only the catalytic domain (104-499) was modelled; also called His6-Ubp6; wild-type Ubp6; source: E. coli Rosetta (DE3), purified (Ni-NTA)
T1 sequence (looked up): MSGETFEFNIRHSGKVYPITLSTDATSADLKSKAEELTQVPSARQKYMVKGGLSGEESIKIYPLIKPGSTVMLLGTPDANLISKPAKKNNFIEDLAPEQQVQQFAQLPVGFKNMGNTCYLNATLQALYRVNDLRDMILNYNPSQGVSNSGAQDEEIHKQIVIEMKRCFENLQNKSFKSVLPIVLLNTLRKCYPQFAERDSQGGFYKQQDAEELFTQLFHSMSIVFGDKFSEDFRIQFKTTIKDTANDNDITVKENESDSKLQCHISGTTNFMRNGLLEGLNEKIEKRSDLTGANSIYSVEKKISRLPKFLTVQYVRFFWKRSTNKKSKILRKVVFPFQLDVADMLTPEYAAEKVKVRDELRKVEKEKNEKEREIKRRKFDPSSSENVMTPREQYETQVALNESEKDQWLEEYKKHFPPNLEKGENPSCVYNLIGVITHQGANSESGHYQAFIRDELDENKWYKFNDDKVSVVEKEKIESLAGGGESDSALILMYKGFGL

T2: Rpt6 (proteasome subunit) (budding yeast, UniProt Q01939 1-405)
T2 construct: Rpt6, ATPase of the regulatory particle, budding yeast; Stood in the assay as a subunit of m6; source: subunit of the 26S proteasome (3X FLAG) purified from yeast
T2 sequence: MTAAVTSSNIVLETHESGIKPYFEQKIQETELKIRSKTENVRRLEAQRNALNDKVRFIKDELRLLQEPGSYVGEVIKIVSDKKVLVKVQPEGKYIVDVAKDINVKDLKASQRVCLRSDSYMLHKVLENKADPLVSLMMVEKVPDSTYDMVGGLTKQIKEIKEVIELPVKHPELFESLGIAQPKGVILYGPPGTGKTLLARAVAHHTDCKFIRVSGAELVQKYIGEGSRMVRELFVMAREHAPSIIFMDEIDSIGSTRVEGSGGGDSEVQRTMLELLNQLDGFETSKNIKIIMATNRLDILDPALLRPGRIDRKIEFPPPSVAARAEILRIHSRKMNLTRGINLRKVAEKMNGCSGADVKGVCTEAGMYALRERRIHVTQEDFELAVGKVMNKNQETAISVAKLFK

B1: Rpt1 (proteasome subunit) (natural protein, budding yeast)
chain: MPPKEDWEKYKAPLEDDDKKPDDDKIVPLTEGDIQVLKSYGAAPYAAKLKQTENDLKDIEARIKEKAGVKESDTGLAPSHLWDIMGDRQRLGEEHPLQVARCTKIIKGNGESDETTTDNNNSGNSNSNSNQQSTDADEDDEDAKYVINLKQIAKFVVGLGERVSPTDIEEGMRVGVDRSKYNIELPLPPRIDPSVTMMTVEEKPDVTYSDVGGCKDQIEKLREVVELPLLSPERFATLGIDPPKGILLYGPPGTGKTLCARAVANRTDATFIRVIGSELVQKYVGEGARMVRELFEMARTKKACIIFFDEIDAVGGARFDDGAGGDNEVQRTMLELITQLDGFDPRGNIKVMFATNRPNTLDPALLRPGRIDRKVEFSLPDLEGRANIFRIHSKSMSVERGIRWELISRLCPNSTGAELRSVCTEAGMFAIRARRKVATEKDFLKAVDKVISGYKKFSSTSRYMQYN
notes: Rpt1, ATPase of the regulatory particle, budding yeast; Stood in the assays as a subunit of m6 or m10; source: subunit of the 26S proteasome (3X FLAG) or RP (Protein A) purified from yeast
B2: Rpt1-S164R T166K (natural protein, budding yeast)
chain: B1 chain with S164R, T166K
notes: Rpt1, ATPase of the regulatory particle, budding yeast, with S164R and T166K; Stood in the assay as a subunit of m7; also called Rpt1-RK; rpt1-RK; source: subunit of the Rpt1-RK 26S proteasome (3X FLAG) purified from yeast
B3: α2 subunit of the CP α ring (natural protein, budding yeast)
chain: MTDRYSFSLTTFSPSGKLGQIDYALTAVKQGVTSLGIKATNGVVIATEKKSSSPLAMSETLSKVSLLTPDIGAVYSGMGPDYRVLVDKSRKVAHTSYKRIYGEYPPTKLLVSEVAKIMQEATQSGGVRPFGVSLLIAGHDEFNGFSLYQVDPSGSYFPWKATAIGKGSVAAKTFLEKRWNDELELEDAIHIALLTLKESVEGEFNGDTIELAIIGDENPDLLGYTGIPTDKGPRFRKLTSQEINDRLEAL
notes: alpha2 subunit of the core particle alpha ring, budding yeast; Stood in the assay as a subunit of m6; source: subunit of the 26S proteasome (3X FLAG) purified from yeast
B4: α3 subunit of the CP α ring (natural protein, budding yeast)
chain: MGSRRYDSRTTIFSPEGRLYQVEYALESISHAGTAIGIMASDGIVLAAERKVTSTLLEQDTSTEKLYKLNDKIAVAVAGLTADAEILINTARIHAQNYLKTYNEDIPVEILVRRLSDIKQGYTQHGGLRPFGVSFIYAGYDDRYGYQLYTSNPSGNYTGWKAISVGANTSAAQTLLQMDYKDDMKVDDAIELALKTLSKTTDSSALTYDRLEFATIRKGANDGEVYQKIFKPQEIKDILVKTGITKKDEDEEADEDMK
notes: alpha3 subunit of the core particle alpha ring, budding yeast; Stood in the assay as a subunit of m6; source: subunit of the 26S proteasome (3X FLAG) purified from yeast

Columns and labels:
[1] = biological target: 26S proteasome purified from rpt1-RK ubp6Δ hul5Δ yeast, Protein A-tagged (budding yeast) (UniProt P33299)
[2] = biological target: 26S proteasome purified from rpt1-RK ubp6Δ hul5Δ yeast, Protein A-tagged (budding yeast) (UniProt P33299); assay: Ub-AMC hydrolysis (activation of Ubp6 as a proxy for the association); Ubp6 1.25 nM to 60 nM titrated on 1 nM proteasome with 1 μM Ub-AMC; rates of Ubp6 alone and proteasome alone subtracted; hyperbolic fit; 50 mM Tris-HCl pH 7.5, 1 mM EDTA, 1 mM ATP, 5 mM MgCl2, 1 mM DTT, 1 mg/mL ovalbumin
[3] = biological target: 26S proteasome purified from ubp6Δ hul5Δ yeast (nominally wild-type), Protein A-tagged (budding yeast) (UniProt P33299); assay: as above
[4] = biological target: 26S proteasome purified from ubp6Δ hul5Δ yeast (nominally wild-type), Protein A-tagged (budding yeast) (UniProt P33299)
[5] = biological target: T1, Ubp6 (wild-type, His6-tagged); assay: cryo-EM structure; 26S proteasomes and Ubp6-UbVS mixed 1:4 (400 nM 26S or 26S Rpt1-RK, 1.6 μM Ubp6-UbVS), 20 min on ice; 20 mM HEPES-NaOH pH 7.4, 40 mM NaCl, 4 mM DTT, 4 mM MgCl2, 4 mM ATP, ~25% sucrose; maps at 6 to 7 Å, models by flexible fitting; conditions: both partners purified
[6] = biological target: T2, Rpt6 (proteasome subunit); assay: as above; conditions: both partners purified

Molecule	Kd [3] [nM]	binding result [5]	binding result [6]	other results
Ubp6 (wild-type, His6-tagged) (from UniProt P43593 1-499) (enzyme)	3.3	–	–	capacity of the Rpt1-RK proteasome to activate wild-type Ubp6 (Ub-AMC hydrolysis), loss relative to wild-type proteasome [1]: 97 % lost; Kd [2]: 2 nM
Ubp6-I329A L330A (from UniProt P43593 97-499) (enzyme)	4	–	–	proteasome-activated deubiquitinating activity (Ub-AMC hydrolysis) of Ubp6-AA relative to wild-type Ubp6 [4]: 2 % of WT
B1	–	binds	–	–
B2	–	binds	–	–
B3	–	–	binds	–
B4	–	–	binds	–
